Laboratory results as given in patent publication US7329737 (DYAX, dated 2008).
Residue numbers refer to the chain shown, from its start.

B1: M0122-H04 (Fab, V domains shown)
VH: EVQLLESGGGLVQPGGSLRLSCAASGFTFSRYAMAWVRQAPGKGLEWVSSIGSSGGVTKYADSVKGRFTISRDNSKNTLYLQMNSLRAEDTAVYYCAAPRGRYYYDSSGYYYGGVFDYWGQGTLVTVSS
VL: AQYELTQPRSVSGSPGQSVTISCTGTSSDVGGFNYVSWYQQHPGKAPKLMIYDVSKRPSGVPDRFSGSKSGTTASLTISGLQADDEADYYCCSYTGNYTYVFGTGTKVTVLG
B2: M0092-B12 (Fab, V domains shown)
VH: EVQLLESGGGLVQPGGSLRLSCAASGFTFSQYLMAWVRQAPGKGLEWVSSIYPSGGNTNYADSVKGRFTISRDNSKNTLYLQMNSLRAEDTAVYYCARDRSIVPYSSSWYMPRDYYYGMDVWGQGTTVTVSS
VL: DIQMTQSPSSLSASVGDRVTITCRASQGISNYLAWYQQKPGKVPKLLIYAASTLQSGVPSRFSGSGSGTDFTLTISSLQPEDFATYYCQQSYSTPYTFGQGTKLEVRR
B3: M0139-A04 (Fab, V domains shown)
VH: EVQLLESGGGLVQPGGSLRLSCAASGFTFSHYPMTWVRQAPGKGLEWVSSIRPSGGNTGYADSVKGRFTISRDNSKNTLYLQMNSLRAEDTAVYYCARLTGYSSGWFWAYGMDVWGQGTTVTVSS
VL: DIQMTQSPGTLSLSPGDRATLSCRASQSVSSSYLAWYQQKAGQAPRLLIYGAASRATGIPDRFSGSGSGTDFTLTISRLEREDFAVYYCQQYGSSPLITFGQGTRLEIKR
B4: M0108-C10 (Fab, V domains shown)
VH: EVQLLESGGGLVQPGGSLRLSCAASGFTFSRYVMAWVRQAPGKGLEWVSVIRPSGGKTLYADSVKGRFTISRDNSKNTLYLQMNSLRAEDTAVYYCARVAGRVGVPATKKNWFDPWGQGTLVTVSS
VL: AQSVLTQPASVSGSPGQSITISCTGTSSDVGGYNYVSWYQQHPGQPPKLIIYEVSNRASGVSNRFSGSKFGNTASLTISGLQSEDEADYHCSSYTSSTTLLFGGGTRLTVLG
B5: M0138-B06 (Fab, V domains shown)
VH: EVQLLESGGGLVQPGGSLRLSCAASGFTFSPYTMSWVRQAPGKGLEWVSGIYPSGGETWYADSVKGRFTISRDNSKNTLYLQMNSLRAEDTAVYYCAKNINLRYDILTGYFDFWGQGTMVTVSS
VL: DIQMTQSPSSVSASVGDRVTITCRASQGISSWLAWYQQKPGKAPKLLIYAASSLQSGVPSRFSGSGSGTDFTLTISSLQPEDFATYYCQQANSFPLTFGGGTKVEIKR
B6: M0111-B02 (Fab, V domains shown)
VH: EVQLLESGGGLVQPGGSLRLSCAASGFTFSKYWMAWVRQAPGKGLEWVSVIYPSGGQTKYADSVKGRFTISRDNSKNTLYLQMNSLRAEDTAVYYCTLMRYGDRFDYWGQGTLVTVSS
VL: AQYELTQDPAVSVALGQTVRITCQGDSLRSYYASWYQQKPGQAPVLVIYSKSNRPSGIPDRFSGSSSGSTASLTITGAQAEDEADYYCNSRDSSGNHLVFGGGTKLTVL
B7: M0129-B09 (Fab, V domains shown)
VH: EVQLLESGGGLVQPGGSLRLSCAASGFTFSRYWMHWVRQAPGKGLEWVSSIGPSGGVTKYADSVKGRFTISRDNSKNTLYLQMNSLRAEDTAVYYCARHGSWGGMDVWGQGTTVTVSS
VL: B5 VL with S10F, V11L, W32Y, S53T, D70E, A91L, F94Y, L96R, G100Q
B8: M0099-C12 (Fab, V domains shown)
VH: EVQLLESGGGLVQPGGSLRLSCAASGFTFSRYAMHWVRQAPGKGLEWVSSIWPSGGATFYADSVKGRFTISRDNSKNTLYLQMNSLRAEDTAVYYCATSPTLNAFHIWGQGTMVTVSS
VL: AQSVLTQPASVSGSPGQSITISCTGTTSDVGGYKYVSWYQHHPGKVPKLIIYEVNHRPSGVSHRFSGSKSGNTASLIISALQAEDEADYYCYSYTSDSTPYVFGTGTKVTVL
B9: M0099-E11 (Fab, V domains shown)
VH: EVQLLESGGGLVQPGGSLRLSCAASGFTFSHYTMVWVRQAPGKGLEWVSSIYSSGGRTNYADSVKGRFTISRDNSKNTLYLQMNSLRAEDTAVYYCARIVVVPSAQFYFYYGMDVWGQGTTVTVSS
VL: DIQMTQSPSTLSASVGDRVTITCRASQSISNWLAWYQQKPGRAPKLLIYKASTLESGVPSRFSGSGSGTEFTLTISSLQPDDFATYYCQHYNSYSLFGQGTKLEIKR
B10: M0103-F07 (Fab, V domains shown)
VH: B7 VH with R31L, W33A, G52R, V57L, H99V, S101V, G103Y
VL: AQSALTQPASVSGSPGQSITISCTGTSNDIGRTNYVSWYRQDPGRAPKLILFEVSNRPSGISNRFSASKSGSTASLTISGLQADDESDYYCSSCTTAPVCVFGNGTRVTVLG
B11: M0102-A04 (Fab, V domains shown)
VH: EVQLLESGGGLVQPGGSLRLSCAASGFTFSHYVMNWVRQAPGKGLEWVSRIYPSGGVTVYADSVKGRFTISRDNSKNTLYLQMNSLRAEDTAVYYCARGYGMDVWGQGTMVTVSS
VL: AQSELTQPPSASGTPGQRVTISCSGSSSNIGSNYVYWYQQYPGTVPKLLIHSNNQRPSGVPDRFSGPKSGTSASLAISGLRSEDEADYYCATWDNSLSAWVFGGGTKLTVLR
B12: M0119-B09 (Fab, V domains shown)
VH: EVQLLESGGGLVQPGGSLRLSCAASGFTFSWYWMYWVRQAPGKGLEWVSVIGSSGGVTKYADSVKGRFTISRDNSKNTLYLQMNSLRAEDTATYYCARGPYRGYFDYWGQGTLVTVSS
VL: DIQMTQSPATLSVSPGEGATLSCRASQSVGNSLAWYQQKPGQAPRVLVYGASTRASGIPARFSGSGSVTEFTLTISSLQSEDFAVYYCQEYNKWPITFGQGTRLERKR
B13: M0097-E07 (Fab, V domains shown)
VH: EVQLLESGGGLVQPGGSLRLSCAASGFTFSWYQMMWVRKAPGKGLEWVSYIRSSGGKTDYADSVKGRFTISRDNSKNTLYLQMNSLRAEDTAVYYCARVGVWYGMDVWGQGTTVTVSS
VL: DIQMTQSPSSLSASVGDRVTITCRASQSISSYLSWFQQRPGKAPKLLIYSASNLQSGVPLRFSGSGSGTDFTLTISSLQPEDFATYYCQQIYRTPLTFGGGTKVEIKR
B14: M0117-A12 (Fab, V domains shown)
VH: B13 VH with W31N, Q33K, M35S, K39Q, Y50G, R52Y, S53P, K57L, D59Q, R98K
VL: DIQMTQSPGTLSLSPGDRATLSCRASQSVGSDYLAWYQQKPGQAPRLLIYGASSRATGIPDRFSGSGSGTDFTLTISRLEPEDFAVYYCQQYGSSLYTFGQGTKLEIKR
B15: M0126-C10 (Fab, V domains shown)
VH: EVQLLESGGGLVQPGGSLRLSCAASGFTFSHYKMHWVRQAPGKGLEWVSSIWPSGGGTFYADSVKGRFTISRDNSKNTLYLQMNSLRAEDTAMYYCARTSGGFGAFDIWGQGTMVTVSS
VL: DIQMTQSPSSLSASVGDRVTITCRAGQTINNYLNWYQQKPGKAPNLLIYAASNLQSGVPSRFSGSKSGTDFTLTISSLQPEDFATYHCQQTYRTPFTFGGGTRVEIKG
B16: M0127-D05 (Fab, V domains shown)
VH: EVQLLESGGGLVQPGGSLRLSCAASGFTFSHYYMMWVRQAPGKGLEWVSSIGPSGGMTDYADSVKGRFTISRDNSKNTLYLQMNSLRAEDTAVYYCATGGTASLDYWGQGTLVTVSS
VL: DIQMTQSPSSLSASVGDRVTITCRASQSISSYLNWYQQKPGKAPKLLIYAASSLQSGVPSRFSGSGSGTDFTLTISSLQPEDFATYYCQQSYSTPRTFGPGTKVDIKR
B17: M0126-B12 (Fab, V domains shown)
VH: EVQLLESGGGLVQPGGSLRLSCAASGFTFSHYVMGWVRQAPGKGLEWVSSIYPSGGKTTYADSVKGRFTISRDNSKNTLYLQMNSLRAEDTAVYYCASPSTGSWSAFDIWGQGTMVTVSS
VL: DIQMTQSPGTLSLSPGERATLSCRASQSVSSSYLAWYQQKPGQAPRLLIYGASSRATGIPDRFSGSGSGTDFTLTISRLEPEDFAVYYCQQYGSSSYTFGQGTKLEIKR
B18: M0122-G06 (Fab, V domains shown)
VH: EVQLLESGGGLVQPGGSLRLSCAASGFTFSWYAMHWVRQAPGKGLEWVSVISPSGGATRYADSVKGRFTISRDNSKNTLYLQMNSLRAEDTAVYYCVRASTVTTLFQHWGQGTLVTVSS
VL: AQSALTQPASVSGSPGQSITISCTGTSSDVGGYNYVSWYQQHPGKAPKLMIYDVSKRPSGVSNRFSGSKSGNTASLTISGLQAEDEADYYCSSYTSSITLVVFGGGTKLTVLS
B19: M0107-D05 (Fab, V domains shown)
VH: EVQLLESGGGLVQPGGSLRLSCAASGFTFSNYHMQWVRQAPGKGLEWVSSIYPSGGFTRYADSVKGRFTISRDNSKNTLYLQMNSLRAEDTAVYYCARDGGQGGWGQGTLVTVSS
VL: B5 VL with S10T, V11L, G28S, A43V, Y49H, S53T, F83V, Q90K, A91Y, F94A
B20: M0127-H05 (Fab, V domains shown)
VH: B11 VH with V33L, N35G, R50S, Y52W, V57H, V59S, G99H, M110T
VL: DIQMTQSPSSLSASVGDRVTITCRASQSISSYLNWYQQKPGKVPKLLIYAASSLQSGVPSRFSGSGSGTDFTLTISSLQPDDFATYYCQQTFSTWTFGQGTKVEIRR
B21: M0112-C12 (Fab, V domains shown)
VH: B7 VH with W33M, H35Y, G52Y, V57K, K59L, H99V, S101V, G103Y
VL: DIQMTQSPGTLSLSPGERATLSCRASQSVSSSYLAWYQQKPGQAPRLLIYGASSRATGIPDRFSGSGSGTEFTLTISSLQSEDSAVYYCQQYNNWPPLTFGGGTKVEIKR

These binders were tested against T1, hK1 (human tissue kallikrein 1), recombinant (human, UniProt P06870 25-262) (assay: SPR).
T1 construct: Expressed in P. pastoris from KLK1 cDNA and purified; enzymatically active; also called KLK1; Recombinant (Pichia) Kallikrein
For B1, the Kd was 11.8 nM, the koff was 0.000802 s⁻¹ and the kon was 68200 M⁻¹ s⁻¹.
B2 was tested, and the Kd was 12.1 nM, the koff was 0.00171 s⁻¹ and the kon was 141000 M⁻¹ s⁻¹.
B3 showed a Kd of 12.2 nM, a koff of 0.00503 s⁻¹ and a kon of 411000 M⁻¹ s⁻¹.
For B4, the Kd was 12.2 nM, the koff was 0.00431 s⁻¹ and the kon was 353000 M⁻¹ s⁻¹.
In the case of B5, the Kd is reported as 12.5 nM, the koff is reported as 0.000829 s⁻¹ and the kon is reported as 66400 M⁻¹ s⁻¹.
B6 gave a Kd of 12.7 nM and a koff of 1170 s⁻¹.
B7 showed a Kd of 12.7 nM, a koff of 0.022 s⁻¹ and a kon of 1.73e+06 M⁻¹ s⁻¹.
Work on B8 yielded a Kd of 13 nM, a koff of 0.00461 s⁻¹ and a kon of 354000 M⁻¹ s⁻¹.
B9 was tested, and the Kd was 13.2 nM, the koff was 0.00796 s⁻¹ and the kon was 605000 M⁻¹ s⁻¹.
For B10, the Kd was 13.2 nM, the koff was 0.00743 s⁻¹ and the kon was 564000 M⁻¹ s⁻¹.
B11 was tested, and the Kd was 13.3 nM, the koff was 0.00435 s⁻¹ and the kon was 327000 M⁻¹ s⁻¹.
B12 was tested, and the Kd was 13.7 nM, the koff was 0.00483 s⁻¹ and the kon was 352000 M⁻¹ s⁻¹.
For B13, the Kd was 13.9 nM, the koff was 0.00815 s⁻¹ and the kon was 585000 M⁻¹ s⁻¹.
B14 showed a Kd of 14.2 nM, a koff of 0.00345 s⁻¹ and a kon of 243000 M⁻¹ s⁻¹.
B15 was tested, and the Kd was 14.4 nM, the koff was 0.00648 s⁻¹ and the kon was 451000 M⁻¹ s⁻¹.
In the case of B16, the Kd is reported as 14.4 nM, the koff is reported as 0.000921 s⁻¹ and the kon is reported as 63900 M⁻¹ s⁻¹.
For B17, the Kd was 15 nM, the koff was 0.00579 s⁻¹ and the kon was 385000 M⁻¹ s⁻¹.
Binder B18 has a Kd of 15.2 nM, a koff of 0.107 s⁻¹ and a kon of 7.08e+06 M⁻¹ s⁻¹.
Work on B19 yielded a Kd of 15.3 nM, a koff of 0.003 s⁻¹ and a kon of 195000 M⁻¹ s⁻¹.
Work on B20 yielded a Kd of 15.3 nM, a koff of 0.00439 s⁻¹ and a kon of 287000 M⁻¹ s⁻¹.
Binder B21 has a Kd of 16 nM, a koff of 0.00465 s⁻¹ and a kon of 290000 M⁻¹ s⁻¹.
